# Results reported in the supplement of paper PMC9112550, “Optimization of the antimicrobial peptide Bac7 by deep mutational scanning” (BMC Biology, 2022).
# Test system: Escherichia coli TOP10
# Assay: shrunken log2 fold change of peptide-encoding DNA abundance (4.5 h post-induction vs induction); higher = less antimicrobial activity (less host growth inhibition)
# Settings: time post-induction: 4.5 h; library: site-saturation at positions 5, 18, 19, 20
# 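Further: peptides expressed intracellularly from a pBAD plasmid library in pooled LB shake-flask culture, induced with 0.3% L-arabinose, DNA abundance read by NGS, three biological replicates, DESeq2 with apeglm shrinkage.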
row,Sequence,shrunken log2 fold change
1,RRIRMRPPRLPRPRPRPYDAPRP,0.11
2,RRIRKRPPRLPRPRPRPDAYPRP,1.82
3,RRIRMRPPRLPRPRPRPLKQPRP,0.513
4,RRIRLRPPRLPRPRPRPMIWPRP,-0.0275
5,RRIRARPPRLPRPRPRPAFNPRP,0.273
6,RRIRERPPRLPRPRPRPPPVPRP,0.261
7,RRIRVRPPRLPRPRPRPPRNPRP,0.343
8,RRIRYRPPRLPRPRPRPSEIPRP,-0.271
9,RRIRYRPPRLPRPRPRPKCRPRP,-0.153
10,RRIRCRPPRLPRPRPRPCNQPRP,-0.412
11,RRIRPRPPRLPRPRPRPNPVPRP,-0.0737
12,RRIRDRPPRLPRPRPRPVCTPRP,0.0514
13,RRIRRRPPRLPRPRPRPCRCPRP,-0.00341
14,RRIRQRPPRLPRPRPRPLSKPRP,-0.194
15,RRIRVRPPRLPRPRPRPHEDPRP,0.0277
16,RRIRTRPPRLPRPRPRPYGLPRP,4.72
17,RRIRVRPPRLPRPRPRPEVNPRP,-0.0796
18,RRIRPRPPRLPRPRPRPTFVPRP,0.012
19,RRIRGRPPRLPRPRPRPAFWPRP,0.71
20,RRIRERPPRLPRPRPRPKNNPRP,-0.464
21,RRIRRRPPRLPRPRPRPPYFPRP,0.442
22,RRIRVRPPRLPRPRPRPGSKPRP,0.0731
23,RRIRLRPPRLPRPRPRPMKAPRP,-0.0274
24,RRIRKRPPRLPRPRPRPVHRPRP,-0.0578
25,RRIRWRPPRLPRPRPRPAKQPRP,0.0759

row,Sequence,shrunken log2 fold change
1,RRIRWRPPRLPRPRPRPYITPRP,-0.13
2,RRIRNRPPRLPRPRPRPGPTPRP,0.3
3,RRIRFRPPRLPRPRPRPDMVPRP,-0.499
4,RRIRYRPPRLPRPRPRPTTNPRP,-0.837
5,RRIRMRPPRLPRPRPRPKDFPRP,-0.025
6,RRIRLRPPRLPRPRPRPDSDPRP,-0.0524
7,RRIRHRPPRLPRPRPRPYANPRP,-0.271
8,RRIRDRPPRLPRPRPRPIFDPRP,0.0515
9,RRIRLRPPRLPRPRPRPLKQPRP,-0.0926
10,RRIRVRPPRLPRPRPRPRHYPRP,0.645
11,RRIRLRPPRLPRPRPRPWITPRP,-0.028
12,RRIRERPPRLPRPRPRPHKSPRP,-0.0459
13,RRIRPRPPRLPRPRPRPVKRPRP,-0.171
14,RRIRSRPPRLPRPRPRPPCFPRP,-0.0133
15,RRIRGRPPRLPRPRPRPMGEPRP,0.902
16,RRIRRRPPRLPRPRPRPRGLPRP,0.396
17,RRIRCRPPRLPRPRPRPMKDPRP,-0.594
18,RRIRTRPPRLPRPRPRPAEWPRP,0.0396
19,RRIRTRPPRLPRPRPRPPFHPRP,0.535
20,RRIRKRPPRLPRPRPRPHTPPRP,0.0819
21,RRIRTRPPRLPRPRPRPHHFPRP,-0.0421
22,RRIRIRPPRLPRPRPRPIMCPRP,-0.0373
23,RRIRQRPPRLPRPRPRPAGEPRP,0.156
24,RRIRMRPPRLPRPRPRPAIIPRP,0.0113
25,RRIRIRPPRLPRPRPRPDPWPRP,0.0621

row,Sequence,shrunken log2 fold change
1,RRIRVRPPRLPRPRPRPIDEPRP,0.0357
2,RRIRVRPPRLPRPRPRPVERPRP,0.0358
3,RRIRSRPPRLPRPRPRPMMHPRP,-0.121
4,RRIRRRPPRLPRPRPRPHYRPRP,-0.306
5,RRIRHRPPRLPRPRPRPIVEPRP,-0.133
6,RRIRKRPPRLPRPRPRPENHPRP,-0.229
7,RRIRWRPPRLPRPRPRPNVAPRP,0.088
8,RRIRSRPPRLPRPRPRPRAIPRP,0.134
9,RRIRIRPPRLPRPRPRPGAAPRP,0.18
10,RRIRERPPRLPRPRPRPWPGPRP,-0.0345
11,RRIRERPPRLPRPRPRPATEPRP,-0.155
12,RRIRLRPPRLPRPRPRPNWQPRP,0.351
13,RRIRQRPPRLPRPRPRPFFDPRP,-0.0271
14,RRIRTRPPRLPRPRPRPCHNPRP,-0.0285
15,RRIRTRPPRLPRPRPRPQCAPRP,0.151
16,RRIRHRPPRLPRPRPRPSSRPRP,-0.175
17,RRIRHRPPRLPRPRPRPAVEPRP,-0.0419
18,RRIRHRPPRLPRPRPRPVFWPRP,0.0698
19,RRIRRRPPRLPRPRPRPDPKPRP,0.304
20,RRIRMRPPRLPRPRPRPFRGPRP,-0.205
21,RRIRFRPPRLPRPRPRPNGEPRP,0.0684
22,RRIRARPPRLPRPRPRPMWPPRP,0.527
23,RRIRVRPPRLPRPRPRPSMSPRP,-0.147
24,RRIRVRPPRLPRPRPRPFKPPRP,-0.132
25,RRIRNRPPRLPRPRPRPDDFPRP,-0.00663
